These are literature values, as cited in paper PMC4746476.

In this series the target is CCL21 (Homo sapiens) (UniProt O00585).
UniProt O00585, sequence (O00585 24-134): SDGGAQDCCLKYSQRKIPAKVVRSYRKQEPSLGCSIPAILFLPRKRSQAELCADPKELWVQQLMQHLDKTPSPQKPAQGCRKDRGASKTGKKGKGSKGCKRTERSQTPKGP

In general, Kd refers to the equilibrium constant for the complex coming apart. As for CCR7 (from UniProt P32248), the Kd was 10 nM.
